Key:
Experiment in all cases: SPR; Biacore T200, CM5 chip with immobilised anti-His antibody, 20 °C; His-tagged receptor or antigen captured; serial dilutions of anti-CD20 X-body, IgG or IgA injected (120 s binding, 240 s dissociation, 30 µL/min); 1:1 binding kinetic model or steady-state affinity model
Conditions in all cases: both partners purified
FcγRIIIa^F158 = target: T1, FcγRIIIa^F158 (human, UniProt P08637 17-208)
T1 construct: source: HEK293F, secreted, purified (HisTrap HP); not shown: His6, C-terminal, kept

FcγRIIa^H131 = target: T2, FcγRIIa^H131 (human, UniProt P12318 34-217)
T2 construct: The methods name FcγRIIa only; source: HEK293F, secreted, purified (HisTrap HP); not shown: His6, C-terminal, kept
T2 sequence (looked up): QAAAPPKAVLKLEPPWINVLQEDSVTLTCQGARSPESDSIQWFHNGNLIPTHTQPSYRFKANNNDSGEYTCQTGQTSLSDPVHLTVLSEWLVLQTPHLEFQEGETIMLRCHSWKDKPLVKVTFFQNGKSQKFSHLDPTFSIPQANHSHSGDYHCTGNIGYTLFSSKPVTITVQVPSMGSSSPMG

FcγRIIb = target: T3, FcγRIIb (human, UniProt P31994 43-217)
T3 construct: human FcγRIIb, extracellular domain; source: HEK293F, secreted, purified (HisTrap HP); not shown: His6, C-terminal, kept
T3 sequence (looked up): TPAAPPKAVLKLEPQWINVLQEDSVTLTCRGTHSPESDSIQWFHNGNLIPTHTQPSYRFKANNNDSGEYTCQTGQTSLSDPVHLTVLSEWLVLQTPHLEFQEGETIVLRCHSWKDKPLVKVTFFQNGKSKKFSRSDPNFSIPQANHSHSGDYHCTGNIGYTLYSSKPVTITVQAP

CD20 = target: T4, CD20 (human, UniProt P11836 1-297)
T4 construct: CD20, the antigen of rituximab; His-tagged, captured on the anti-His chip; also called antigen CD20; hCD20
T4 sequence (looked up): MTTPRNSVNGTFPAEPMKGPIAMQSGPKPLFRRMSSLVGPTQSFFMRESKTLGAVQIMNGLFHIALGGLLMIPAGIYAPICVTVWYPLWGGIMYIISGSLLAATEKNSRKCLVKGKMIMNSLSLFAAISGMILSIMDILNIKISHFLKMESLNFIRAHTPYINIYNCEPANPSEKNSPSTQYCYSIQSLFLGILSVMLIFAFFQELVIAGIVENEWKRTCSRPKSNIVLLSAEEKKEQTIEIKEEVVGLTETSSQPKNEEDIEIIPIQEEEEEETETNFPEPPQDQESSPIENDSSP

T1 sequence (P08637 17-208): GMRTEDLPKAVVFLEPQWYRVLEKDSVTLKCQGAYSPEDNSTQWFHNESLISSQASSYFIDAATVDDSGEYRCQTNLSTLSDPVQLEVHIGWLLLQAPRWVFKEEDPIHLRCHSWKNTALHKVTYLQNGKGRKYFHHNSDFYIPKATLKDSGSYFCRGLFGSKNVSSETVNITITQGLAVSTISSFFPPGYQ

B1: Rituximab X-body (antibody, human IgG1, kappa)
heavy: not shown
chain: QIVLSQSPAILSASPGEKVTMTCRASSSVSYIHWFQQKPGSSPKPWIYATSNLASGVPVRFSGSGSGTSYSLTISRVEAEDAATYYCQQWTSNPPTFGGGTKLEIKRTVAAPSVFIFPPSDEQLKSGTASVVCLLNNFYPREAKVQWKVDNALQSGNSQESVTEQDSKDSTYSLSSTLTLSKADYEKHKVYACEVTHQGLSSPVTKSFNRGECGGGGSGGGGSGGGGSGGGGSGGGGSGGGGSVPPPPPCCHPRLSLHRPALEDLLLGSEANLTCTLTGLRDASGATFTWTPSSGKSAVQGPPERDLCGCYSVSSVLPGCAQPWNHGETFTCTAAHPELKTPLTANITKSGNTFRPEVHLLPPPSEELALNELVTLTCLARGFSPKDVLVRWLQGSQELPREKYLTWASRQEPSQGTTTYAVTSILRVAAEDWKKGETFSCMVGHEALPLAFTQKTIDRMAGK
notes: 6×G4S linker; IgA2 Fc (hinge, CH2, CH3) without the tailpiece region; Tetramer of two heavy chains and two chimeric chains: two Fabs, one IgG1 Fc, one IgA2 Fc; also called anti-CD20 X-body; anti-human CD20 X-body with 6×G4S linker; source: HEK293F, transfected (pTT5), purified (HiTrap Protein A, Superdex 200 Increase); copies: 2 + 2
Kd (FcγRIIIa^F158): 0.0216 nM
Kd (FcγRIIa^H131): 0.0364 nM
Kd (FcγRIIb): 0.00422 nM
Kd (CD20): 8.04 nM
